In the supplement of paper PMC7877785:
± gives the uncertainty stated by the source.

Assay: self-splicing fitness, log relative to wild type (ln ratio); higher = more splicing; Tetrahymena group I intron in knt gene, E. coli kanamycin selection, DiMSum; sequences stand for … in CUCUCU…GGAGGGAAAAGUUAUCAGGCAUGCACCUGGUAGCUAGUCUUUAAACCAAUAGAUUGCAUCGGUUUAAAAGGCAAGACCGUCAAAUUGCGGGAAAGGGGUCAACAGCCGUUCAGUACCAAGUCUCAGGGGAAACUUUGAGAUGGCCUUGCAAAGGGUAUGGUAAUAAGCUGACGGACAUGGUCCUAACCACGCAGCCAAGUCCUAAGUCAACAGAUCUUCUGUUGAUAUGGAUGCAGUUCACAGACUAAAUGUCGGUCGGGGAAGAUGUAUUCUUCUCAUAAGAUAUAGUCGGACCUCUCCUUAAUGGGAGCUAGCGGAUGAAGUGAUGCAACACUGGAGCCGCUGGGAACUAAUUUGUAUGCGAAAGUAUAUUGAUUAGUUUUGGAGUACUCGUGGUCG
Summary of the method: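 The eight P1ex-region nucleotides of an intron in the knt kanamycin-resistance gene on pET-22b(+) were all randomised and the library put into E. coli BL21(DE3). Six replicate transformations were grown overnight at 37°C or 30°C on LB agar with or without 25 μg/mL kanamycin, together with 100 μg/mL carbenicillin, 50 μM IPTG and 0.2% rhamnose. Colonies were pooled and amplicon-sequenced on an Illumina HiSeq 2500. Fitness from DiMSum is the error-weighted combination of wild-type-normalised replicate fold changes, kanamycin over none.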

Sequence | self-splicing fitness (ln) (30 °C) | self-splicing fitness (ln) (37 °C)
UGCGAGCAAUAUUACGAUAA | -3.41 ± 0.23 | -2.01 ± 0.18
GCGCAGCAAUAUUACGAGGG | -2.78 ± 0.09 | -1.84 ± 0.098
CUCCAGCAAUAUUACGAGCG | -2.95 ± 0.16 | -2.56 ± 0.23
UUCCAGCAAUAUUACGAAGA | -0.997 ± 0.11 | -0.671 ± 0.1
AGUAAGCAAUAUUACGUCAC | -3.26 ± 0.19 | -2.11 ± 0.17
CACAAGCAAUAUUACGAGCU | -3.48 ± 0.24 | -3.29 ± 0.3
UACAAGCAAUAUUACGGGUA | -1.13 ± 0.072 | -0.839 ± 0.077
AACUAGCAAUAUUACGUUGC | -3.47 ± 0.17 | -1.9 ± 0.22
CUACAGCAAUAUUACGAUAG | -2.04 ± 0.12 | -1.16 ± 0.12
UUGUAGCAAUAUUACGCGAU | -3.54 ± 0.26 | -2.51 ± 0.25
UGCGAGCAAUAUUACGCCGG | -3.39 ± 0.34 | –
AAAUAGCAAUAUUACGGGAU | -2.7 ± 0.099 | -1.03 ± 0.11
AAUCAGCAAUAUUACGGGAU | -1.45 ± 0.08 | -1.34 ± 0.087
GUCGAGCAAUAUUACGGGGA | -2.91 ± 0.3 | -1.39 ± 0.24
GGCCAGCAAUAUUACGUUGC | -1.58 ± 0.071 | -0.74 ± 0.081
UACUAGCAAUAUUACGUCCA | -0.715 ± 0.1 | -0.49 ± 0.13
CAACAGCAAUAUUACGGAGG | -1.33 ± 0.048 | -0.382 ± 0.065

Sequence | self-splicing fitness (ln) (30 °C) | self-splicing fitness (ln) (37 °C)
CUUCAGCAAUAUUACGGCAG | -0.556 ± 0.12 | -0.351 ± 0.14
AGAAAGCAAUAUUACGUAUU | -2.59 ± 0.13 | -1.27 ± 0.14
UGGGAGCAAUAUUACGUUCA | -0.406 ± 0.091 | -0.266 ± 0.12
UUGGAGCAAUAUUACGAGAC | – | -2.25 ± 0.5
GCUCAGCAAUAUUACGCUAC | -3.26 ± 0.17 | -2.69 ± 0.2
CCAAAGCAAUAUUACGCUGU | -3.89 ± 0.14 | -2.69 ± 0.15
CAACAGCAAUAUUACGAAAC | -3.87 ± 0.2 | -2.01 ± 0.17
UGAUAGCAAUAUUACGGCGC | -2.62 ± 0.22 | -1.18 ± 0.23
AGGGAGCAAUAUUACGUUGA | – | -2.8 ± 0.24
GUAAAGCAAUAUUACGUCUC | 0.704 ± 0.098 | 0.129 ± 0.11
AAGGAGCAAUAUUACGAUAG | -4.31 ± 0.46 | -2.87 ± 0.43
UUACAGCAAUAUUACGACUC | -2.69 ± 0.24 | -1.28 ± 0.2
GCUGAGCAAUAUUACGUAAU | -3.77 ± 0.24 | -1.29 ± 0.14
ACGAAGCAAUAUUACGUGGU | -3.5 ± 0.16 | -2.95 ± 0.15
CCAAAGCAAUAUUACGAACG | 0.08 ± 0.054 | -0.168 ± 0.071
GUGAAGCAAUAUUACGGAUC | -1.43 ± 0.086 | -0.286 ± 0.13
UCAGAGCAAUAUUACGUAUU | -3.31 ± 0.2 | -3.08 ± 0.29
